Target: SroF^Phi3T, master repressor of phage Phi3T (recombinant) (Bacillus phage Phi3T)
Assay: BLI

Sar^Phi3T, shorter annotation lacking the first 10 amino acids (recombinant) (natural protein)
Kd: 21.7 nM

From paper doi:10.1101/2025.11.27.690993
